“Also recorded” adds a separate entry of the source. Read-outs that look alike come from different tables or passages of the source.
Assays:
[1] = tested on: human PDZ domains; test: G assay, E6 PL peptides against PDZ domain panel; conditions: value names the PDZ domain(s) that saturated binding with the E6 peptide; signal classes (A450 nm 3-4 or 4)
Experimental: (1) A PDZ-domain polypeptide is bound to a surface, e.g. a protein binding surface. In a preferred embodiment, a GST/PDZ fusion protein containing one or more PDZ domains is bound to a polystyrene 96-well plate. […] In one embodiment, the GST/PDZ fusion protein is bound via an anti-GST antibody that is coated onto the 96-well plate. Adequate binding to the plate can be achieved when: • a. 100 uL per well of 5 ug/mL goat anti-GST polyclonal antibody (Pierce) in PBS is added to a polystyrene 96-well plate (e.g., Num Polysorb) at 4° C. for 12 hours. • b. The plate is blocked by addition of 200 uL per well of PBS/BSA for 2 hours at 4° C. • c. The plate is washed 3 times with PBS. • d. […]
(3) The binding of the biotinylated peptide to the GST/PDZ fusion protein surface can be detected using a variety of methods and detectors known to one of skill in the art. […] The reaction of the HRP and its substrate is terminated by addition of 100 uL per well of 1M sulfuric acid, and the absorbance of each well of the plate is read at 450 nm.
(4) Specific binding of a PL peptide and a PDZ domain polypeptide is determined by comparing the signal from the well(s) in which the PL peptide and PDZ domain polypeptide are combined, with the background signal(s). […]

[2] = molecular target: GST-HPV18E6 fusion protein (Human papillomavirus type 18, UniProt P06463); conditions: plate coated with 5 ug/ml GST-E6, unpurified TIP-TIP-IgG supernatant, FIG. 2
Experimental: (§1) Protocol • 1) Coat plate with 5 ug/ml GST-E6 fusion protein, O/N @4° C. • 2) Dump proteins out and tap dry • 3) Blocking—Add 200 ul per well 2% BSA/PBS, 2 hrs at 4° C. • 4) Prepare PDZ proteins (50:50 mixture of supematant from TIP-TIP-IgG transfection and 2% BSA/PBS) • 5) 3× wash with cold PBS • 6) Add PDZ protein prepared in step 7 or anti-E6 Ab at 1 ug/ml in 2% BSA/PBS (or anti-GST Ab as control). • 7) 3× wash with cold PBS • 8) Add appropriate concentration of enzyme-conjugated detection Ab (anti-hIgG-HRP, anti-goat-HRP, or anti-mouse-HRP) 100 ul per well on ice, 20 minutes at 4° C. • 9) Turn on plate reader and prepare files • 10) 5× wash with Tween wash buffer, avoiding bubbles • 11) Using gloves, add TMB substrate at 100 ul per well • incubate in dark at room temp • check plate periodically (5, 10, & 20 minutes) • take early readings, if necessary, at 650 nm (blue) • at 30 minutes, stop reaction with 100 ul of 1M H2SO4 • take final reading at 450 nm (yellow)

[3] = molecular target: T1, GST-HPV11E6 (Human papillomavirus 11, UniProt P04019); test: Modified ELISA, TIP-TIP-IgG binding to full length E6; design: species or system HPV11; conditions: plate coated with 5 ug/ml GST-E6; FIG. 2
T1 construct: made in house; host or cells: E. coli
T1 sequence (P04019 whole entry): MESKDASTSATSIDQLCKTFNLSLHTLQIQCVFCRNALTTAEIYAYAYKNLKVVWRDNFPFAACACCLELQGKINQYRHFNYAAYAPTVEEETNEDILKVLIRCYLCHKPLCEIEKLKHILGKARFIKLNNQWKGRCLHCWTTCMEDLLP
Experimental: as §1

GST-HPV18E6 fusion protein, sequence (P06463 whole entry, the tested form may be a part): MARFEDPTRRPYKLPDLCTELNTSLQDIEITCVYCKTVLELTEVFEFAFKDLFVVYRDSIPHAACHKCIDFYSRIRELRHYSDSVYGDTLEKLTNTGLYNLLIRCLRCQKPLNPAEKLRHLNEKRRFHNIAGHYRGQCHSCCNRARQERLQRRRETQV

Molecule: HPV 18: biotinylated 18-20 aa E6 C-terminal peptide of HPV 18, terminal residues E T Q V; RLQRRRETQV (SEQ ID NO: 14)
- PDZ binding partner (signal 4 and 5 of 0-5) [1]: TIP1 and Magi 1 (PDZ #2)

B1: TIP-TIP-IgG fusion protein: two copies of the TIP-1 PDZ domain fused to the hIgG constant region (protein)
chain: QRVEIHKLRQGENLILGFSIGGGIDQDPSQNPFSEDKTDKGIYVTRVSEGGPAEIAGLQIGDKIMQVNGWDMTMVTHDQARKRLTKRSEEVVRLLVTRQSLQKQRVEIHKLRQGENLILGFSIGGGIDQDPSQNPFSEDKTDKGIYVTRVSEGGPAEIAGLQIGDKIMQVNGWDMTMVTHDQARKRLTKRSEEVVRLLVTRQSLQK
modifications: left off: a dimerising Fc or GST
notes: two copies of the TIP-1 PDZ domain fused to the hIgG constant region
- binding to full length oncogenic E6 (HPV18) [2]: able to recognize GST-HPV18E6 fusion protein at levels comparable to an antibody generated against HPV18-E6
- binding to full length oncogenic E6 (HPV18) ([2]; listed as TIP-1): could specifically recognize full length E6 protein from an oncogenic strain (HPV18)
- binding to full length non-oncogenic E6 (HPV11) [3]: did not show any reactivity; also recorded: without binding to non-oncogenic variants

Reference: patent publication US20100120700A1, “METHODS AND COMPOSITIONS FOR TREATING CERVICAL CANCER” (priority 2000, published 2010)
